Reference: patent US20250270584A1 (University of California, published 2025)

Legend:
[1] = target: T1, CaM7 (calmodulin 7) (Arabidopsis thaliana, UniProt P59220 1-149); experiment: IP-MS, anti-Flag IP of GLR3.3-3Flag from leaves of transgenic plants; co-enrichment, may be indirect
T1 construct: also called AT3G43810; pBudCE4.1-EF-1α-CaM7

[2] = target: T2, 3Flag-CaM7 (Arabidopsis thaliana, UniProt P59220 1-149); experiment: Co-IP with anti-GFP agarose from transgenic plants expressing GLR3.3-EGFP and 3Flag-CaM7
T2 construct: also called p35S::Flag-CaM7

[3] = target: T3, GST-CaM7 (Arabidopsis thaliana, UniProt P59220 1-149); experiment: pull-down with CTD deletion variants
T3 construct: also called pGEX-CaM7

B1: GLR3.3-3Flag (receptor)
chain: EKPKVVKIGSIFSFDSVIGKVAKIAIDEAVKDVNSNPDILSGTKFSVSMQNSNCSGFMGMVEALRFMEKDIVGIIGPQCSVVAHMISHMANELRVPLLSFAVTDPVMSPLQFPYFIRTTQSDLYQMDAIASIVDFYGWKEVIAVFVDDDFGRNGVAALNDKLASRRLRITYKAGLHPDTAVNKNEIMNMLIKIMLLQPRIVVIHVYSELGFAVFKEAKYLGMMGNGYVWIATDWLSTNLDSSSPLPAERLETIQGVLVLRPHTPDSDFKREFFKRWRKMSGASLALNTYGLYAYDSVMLLARGLDKFFKDGGNISFSNHSMLNTLGKSGNLNLEAMTVFDGGEALLKDILGTRMVGLTGQLQFTPDRSRTRPAYDIINVAGTGVRQIGYWSNHSGLSTVLPELLYTKEKPNMSTSPKLKHVIWPGETFTKPRGWVFSNNGKELKIGVPLRVSYKEFVSQIRGTENMFKGFCIDVFTAAVNLLPYAVPVKFIPYGNGKENPSYTHMVEMITTGNFDGVVGDVAIVTNRTKIVDFTQPYAASGLVVVAPFKKLNSGAWAFLRPFNRLMWAVTGCCFLFVGIVVWILEHRTNDEFRGPPKRQCVTILWFSFSTMFFAHRENTVSTLGRLVLIIWLFVVLIINSSYTASLTSILTVQQLSSPIKGIESLRERDDPIGYQVGSFAESYLRNELNISESRLVPLGTPEAYAKALKDGPSKGGVAAIVDERPYVELFLSSNCAYRIVGQEFTKSGWGFAFPRDSPLAIDLSTAILELAENGDLQRIHDKWLMKNACTLENAELESDRLHLKSFWGLFLICGVACLLALFLYFVQIIRQLYKKPTDDAIARDQQQNHDSSSMRSTRLQRFLSLMDEKEESKHESKKRKIDGSMNDTSGSTRSRGFDRERSFNSVNPLD
notes: Bait of the IP-MS, expressed in the glr3.3/glr3.6 mutant background; also called p35S::GLR3.3-3Flag; not shown: C-terminal 3Flag tag of vector pCambia1300-3Flag
binding result [1]: binds

B2: GLR3.3-EGFP (receptor)
chain: B1 chain
notes: Used in the Co-IP with anti-GFP magnetic agarose; also called pGLR3.3::GLR3.3-EGFP; not shown: EGFP fusion partner
binding result [2]: binds

B3: MBP-CD2 (other, not shown: large carriers)
chain: LYFVQIIRQLYKKPTDDAIARMDEKEESKHESKKRKIDGSMNDTSGSTRSRGFDRERSFNSVNPLD
notes: domain: CTD
binding result [3]: no binding
